According to publication PMC5264588, “ER residency of the ceramide phosphoethanolamine synthase SMSr relies on homotypic oligomerization mediated by its SAM domain” (Scientific Reports, 2017):
Residue numbers refer to the chain shown, from its start. Numbers in names are those of the source. Where “and” joins values, the source holds several entries; their conditions need not be identical. Equal entries are not always repeated.

B1: V5/His6-tagged SMSr (enzyme, human, UniProt Q96LT4 1-415, looked up)
chain: MAGPNQLCIRRWTTKHVAVWLKDEGFFEYVDILCNKHRLDGITLLTLTEYDLRSPPLEIKVLGDIKRLMLSVRKLQKIHIDVLEEMGYNSDSPMGSMTPFISALQSTDWLCNGELSHDCDGPITDLNSDQYQYMNGKNKHSVRRLDPEYWKTILSCIYVFIVFGFTSFIMVIVHERVPDMQTYPPLPDIFLDSVPRIPWAFAMTEVCGMILCYIWLLVLLLHKHRSILLRRLCSLMGTVFLLRCFTMFVTSLSVPGQHLQCTGKIYGSVWEKLHRAFAIWSGFGMTLTGVHTCGDYMFSGHTVVLTMLNFFVTEYTPRSWNFLHTLSWVLNLFGIFFILAAHEHYSIDVFIAFYITTRLFLYYHTLANTRAYQQSRRARIWFPMFSFFECNVNGTVPNEYCWPFSKPAIMKRLIG
notes: SMSr (SAMD8), ceramide phosphoethanolamine synthase, human, UniProt Q96LT4; the cDNA was PCR amplified and cloned with a C-terminal V5/His6 tag; also called SMSr-V5; SAMD8; source: HeLa, transfected (pcDNA3.1/V5-His TOPO), in detergent extract; not shown: V5, C-terminal, kept; His6, C-terminal, kept
B2: HA-tagged SMSr (enzyme, human, UniProt Q96LT4 1-415, looked up)
chain: B1 chain
notes: SMSr (SAMD8), ceramide phosphoethanolamine synthase, human, UniProt Q96LT4; also called SMSr-HA; full-length SMSr-HA; source: HeLa (wild-type or SMSr-/-), transfected, in detergent extract; not shown: HA, C-terminal, kept
B3: HA-tagged SMSr^D348E (enzyme, human, UniProt Q96LT4 1-415, looked up)
chain: B1 chain with D348E
notes: SMSr (SAMD8), human, UniProt Q96LT4, with D348E; also called enzyme-dead SMSr; source: SMSr-/- HeLa, transfected, in detergent extract; not shown: HA, C-terminal, kept
B4: HA-tagged SMSr^L62E/G63D/K66E (SMSr^OD) (enzyme, human, UniProt Q96LT4 1-415, looked up)
chain: B1 chain with L62E, G63D, K66E
notes: SMSr (SAMD8), human, UniProt Q96LT4, with L62E, G63D and K66E; also called oligomerization-defective triple mutant; source: HeLa (wild-type or SMSr-/-), transfected, in detergent extract; not shown: HA, C-terminal, kept
B5: V5/His6-tagged SMSr expressed in yeast (enzyme, human, UniProt Q96LT4 1-415, looked up)
chain: B1 chain
notes: SMSr (SAMD8), human, UniProt Q96LT4; also called SMSr-V5; pYES2.1/SMSr-V5-His TOPO; source: Saccharomyces cerevisiae IAY11, transformed (pYES2.1/SMSr-V5-His TOPO), in lysate
B6: V5/His6-tagged SMSrΔSAM (domain or fragment, human, UniProt Q96LT4 79-415, looked up)
chain: HIDVLEEMGYNSDSPMGSMTPFISALQSTDWLCNGELSHDCDGPITDLNSDQYQYMNGKNKHSVRRLDPEYWKTILSCIYVFIVFGFTSFIMVIVHERVPDMQTYPPLPDIFLDSVPRIPWAFAMTEVCGMILCYIWLLVLLLHKHRSILLRRLCSLMGTVFLLRCFTMFVTSLSVPGQHLQCTGKIYGSVWEKLHRAFAIWSGFGMTLTGVHTCGDYMFSGHTVVLTMLNFFVTEYTPRSWNFLHTLSWVLNLFGIFFILAAHEHYSIDVFIAFYITTRLFLYYHTLANTRAYQQSRRARIWFPMFSFFECNVNGTVPNEYCWPFSKPAIMKRLIG
notes: SMSr (SAMD8), human, UniProt Q96LT4, without the first 78 N-terminal residues (SAM domain deleted); also called SMSrΔSAM-V5; SAM-domain truncation mutant; source: HeLa, transfected, in detergent extract; not shown: V5, C-terminal, kept; His6, C-terminal, kept

Columns and labels:
[1] = target: the molecule itself; experiment: SDS-resistant oligomers on SDS-PAGE of affinity-purified protein; HeLa cells transfected with one V5(/His6)-tagged construct; anti-V5 immunoprecipitates or Ni-NTA eluates, non-reducing SDS-PAGE, anti-V5 immunoblot; no cross-linker; oligomers mostly lost with 10 mM NEM in lysis or 100 mM DTT
V5/His6-tagged SMSr = target: B1; experiment: co-IP; detergent extracts of HeLa cells co-transfected with HA-tagged and V5/His6-tagged constructs; anti-V5 immunoprecipitation, immunoblot with anti-V5 and anti-HA; non-reducing SDS-PAGE; no NEM named; settings: partners not purified
[2] = target: the molecule itself; experiment: cross-linking; intact HeLa cells (wild-type or SMSr-/-) treated with DSP (0-50 μM, 15 min, RT), lysed with detergent and 10 mM NEM; anti-HA or anti-V5 immunoprecipitation or Ni-NTA, immunoblot against the same tag
[3] = target: the molecule itself; experiment: cross-linking; yeast cells expressing V5/His6-tagged SMSr treated with DSP (0-50 μM, 15 min), lysed, anti-V5 immunoblot

Binder | stoichiometry N [2] | also measured
B1 |  | stoichiometry N [1]: 3 and 6
B2 | 3 and 6 | stoichiometry N (V5/His6-tagged SMSr): 3 and 6
B3 | 6 and 3 | 
B4 | 6 and 3 and 2 | 
B5 |  | stoichiometry N [3]: 3 and 6
B6 | 2 | 
